Earlier results in US20250049892A1, “SEMAGLUTIDE SOLUBLE MICRONEEDLE COMPOSITION AND PREPARATION METHOD THEREFOR” (GUANGZHOU NOVAKEN PHARM CO., LTD., priority 2022, published 2025).

Details: oral administration of semaglutide (with SNAC)

Semaglutide
bioavailability: 0.9-1.2%
